What all share (conditions): tags: NLS, 6xHis
The target of one data set is T1, MHP14(06) (artificial).
T1 chain: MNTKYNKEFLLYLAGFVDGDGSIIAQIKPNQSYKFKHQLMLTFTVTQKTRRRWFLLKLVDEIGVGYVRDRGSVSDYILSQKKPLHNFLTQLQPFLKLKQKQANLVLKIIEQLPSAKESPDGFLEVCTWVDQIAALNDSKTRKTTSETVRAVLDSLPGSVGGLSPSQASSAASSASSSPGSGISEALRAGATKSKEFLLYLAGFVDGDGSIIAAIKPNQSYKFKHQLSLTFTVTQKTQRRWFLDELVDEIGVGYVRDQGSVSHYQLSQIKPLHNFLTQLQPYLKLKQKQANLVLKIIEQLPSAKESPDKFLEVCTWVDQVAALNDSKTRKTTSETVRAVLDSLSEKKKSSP
In words: cell_activity; yeast 37 C; 28 C: 0. Here is the method:
(§1) A 3 mL culture of selective media (MP Biomedical) was inoculated with a single colony of the yeast screening strain and grown at 30° C. overnight. On the following day, a 50 ml YPD culture (MP Biomedical) was started with 2 ml of the overnight culture and grown at 30° C. overnight. On the following day, the cells were harvested by centrifugation at 4000 rpm. The cells were resuspended in 100 ml ice cold water and centrifuged again. The cells were then washed in 1.2 M sorbitol, followed by treatment with 2 ml of 10 mM Tris pH 8.0, 1 mM EDTA, 100 mM Lithium acetate, 10 mM DTT, 0.6M sorbitol for 30 minutes at 30° C. with shaking. The cells were recovered by centrifugation, washed in 40 ml 1.2M sorbitol and finally resuspended in 250 microliters of 1.2M sorbitol. 50 microliter aliquots were transferred to test tubes on ice. Up to 5 microliters of DNA (100-500 nanograms) were added. The suspension was transferred to a 0.2 cm electroporation cuvette, on ice. Electroporation was performed with a pulse charge at 1.5 kV, 200 ohms, 25 microF (pulse time of 5 milliseconds). 1 mL YPD media (MP Biomedical) was added and the cells were allowed to recover at 30° C. for 1-2 hr. The cells were centrifuged, resuspended in 100 uL 1M sorbitol and plated on selective media lacking leucine and containing 2% galactose. The resulting yeast colonies were incubated at various temperatures ranging from 22 to 37 degrees Celsius for 7-10 days. I-CreI and meganucleases derived from it have maximal activity at or above 37 degrees Celsius. Screening was performed at a range of temperatures from 22 to 37 degrees in order to observe increases in activity at lower temperatures which are relevant to certain biological systems (eg. plant cells, plant cell cultures, etc). At that time the red/white sectoring phenotype, indicative of meganuclease activity was observed. Colonies with increased white sectoring over the parental meganuclease (indicating colonies expressing a meganuclease with increased meganuclease activity), also referred to as “hits” and sometimes completely white, were isolated for further analysis.
(§2) A total of 15 MHP14 variants with increased activity were confirmed in the yeast system (as described in Example 6). Increased activity was observed across a range of temperatures: 28 degrees Celsius, 34 degrees Celsius and 37 degrees Celsius, as shown in Table 11.

The target of another data set is T2, MHP14(L14-03) (artificial).
T2 chain: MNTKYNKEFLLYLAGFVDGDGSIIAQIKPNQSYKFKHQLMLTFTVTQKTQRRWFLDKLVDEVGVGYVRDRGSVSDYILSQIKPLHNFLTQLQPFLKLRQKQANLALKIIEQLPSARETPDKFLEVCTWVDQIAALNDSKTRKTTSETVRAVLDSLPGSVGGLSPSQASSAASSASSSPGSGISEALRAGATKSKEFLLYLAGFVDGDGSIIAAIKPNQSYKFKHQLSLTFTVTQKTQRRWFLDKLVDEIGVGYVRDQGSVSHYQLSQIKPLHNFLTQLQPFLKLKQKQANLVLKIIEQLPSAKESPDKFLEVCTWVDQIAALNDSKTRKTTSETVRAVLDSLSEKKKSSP
In words: cell_activity; yeast 37 C; 28 C: 0. Here is the method: as §1, §2

The target of the next data set is T3, MHP14(01) (artificial).
T3 chain: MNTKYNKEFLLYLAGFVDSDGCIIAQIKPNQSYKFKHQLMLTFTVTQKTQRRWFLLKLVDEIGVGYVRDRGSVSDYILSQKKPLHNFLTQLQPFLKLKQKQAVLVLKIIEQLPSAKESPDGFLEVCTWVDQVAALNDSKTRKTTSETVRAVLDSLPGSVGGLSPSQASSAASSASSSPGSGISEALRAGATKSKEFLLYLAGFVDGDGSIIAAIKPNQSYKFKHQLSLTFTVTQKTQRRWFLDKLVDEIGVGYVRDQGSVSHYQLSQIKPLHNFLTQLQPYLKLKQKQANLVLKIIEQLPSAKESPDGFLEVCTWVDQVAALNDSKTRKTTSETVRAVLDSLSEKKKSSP
The data set can be described thus: cell_activity; yeast 37 C; 28 C: 0. Here is the method:
as §1, §2

Another data set deals with T4, MHP14(L14-04) (artificial).
T4 chain: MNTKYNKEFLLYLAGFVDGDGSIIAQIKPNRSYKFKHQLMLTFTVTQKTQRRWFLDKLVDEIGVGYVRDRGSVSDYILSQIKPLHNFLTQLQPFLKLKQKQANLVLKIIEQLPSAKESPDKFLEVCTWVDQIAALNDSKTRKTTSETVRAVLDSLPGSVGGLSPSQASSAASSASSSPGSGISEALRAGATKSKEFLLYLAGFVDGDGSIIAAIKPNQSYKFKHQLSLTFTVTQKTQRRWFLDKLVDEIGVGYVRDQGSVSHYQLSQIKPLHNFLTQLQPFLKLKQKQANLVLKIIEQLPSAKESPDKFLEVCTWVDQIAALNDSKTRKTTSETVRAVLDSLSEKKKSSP
In words: cell_activity; yeast 37 C; 28 C: 0. Here is the method:
as §1, §2

A further data set concerns the target T5, ZM6.22v2(J3) (artificial).
T5 chain: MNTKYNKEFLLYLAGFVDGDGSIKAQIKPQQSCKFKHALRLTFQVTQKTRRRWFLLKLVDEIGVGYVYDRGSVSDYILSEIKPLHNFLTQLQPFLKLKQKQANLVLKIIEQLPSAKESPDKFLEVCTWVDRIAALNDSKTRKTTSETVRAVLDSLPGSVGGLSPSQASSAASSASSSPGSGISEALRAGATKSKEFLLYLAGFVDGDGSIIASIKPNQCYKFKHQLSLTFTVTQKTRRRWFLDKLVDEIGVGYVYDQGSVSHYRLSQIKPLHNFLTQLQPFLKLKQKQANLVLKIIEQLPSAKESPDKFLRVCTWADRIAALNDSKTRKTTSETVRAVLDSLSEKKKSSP
The data set can be described thus: cell_activity; yeast 37 C; 30 C: 0.5. Here is the method: as §1
A total of 13 ZM6.22v2 variants with increased activity were confirmed in the yeast system (as described in Example 6). Increased activity was observed across a range of temperatures: 28 degrees Celsius, 30 degrees Celsius and 37 degrees Celsius, as shown in Table 16.

Consider two molecules from patent publication US20140223606, “COMPOSITIONS AND METHODS COMPRISING SEQUENCES HAVING MEGANUCLEASE ACTIVITY” (PIONEER HI BRED INTERNATIONAL INC, published 2014).

B1: MHP14 recognition site (dsDNA)
DNA 1: CAAACAGATTCACGTCAGATTT
DNA 2: AAATCTGACGTGAATCTGTTTG
Turning to B1, the activity turned out to be 3.5 score 0-4 with MHP14(06), 3 score 0-4 with MHP14(L14-03), 3 score 0-4 with MHP14(01) and 3 score 0-4 with MHP14(L14-04).

B2: ZM6.22v2 recognition site (dsDNA)
DNA 1: ATTGCTCTCTCACATACTTTTA
DNA 2: TAAAAGTATGTGAGAGAGCAAT
With B2, in the data set with ZM6.22v2(J3), the activity stood at 3 score 0-4.
